Series [1] concerns the target T1, Recombinant human GM2 activator protein (GM2AP) containing an N-terminal 6×-histidine tag, P17900.
T1 chain: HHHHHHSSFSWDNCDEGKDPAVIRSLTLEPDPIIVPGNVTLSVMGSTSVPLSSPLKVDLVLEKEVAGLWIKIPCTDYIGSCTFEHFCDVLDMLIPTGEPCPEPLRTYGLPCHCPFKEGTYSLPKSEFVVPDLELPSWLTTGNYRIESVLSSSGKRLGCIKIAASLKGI

Series [2] concerns the target cation independent mannose 6-phosphate receptor (CI-MPR) (human) (UniProt P11717). Description: cell-based or functional assay.
UniProt P11717, sequence (P11717 41-2491): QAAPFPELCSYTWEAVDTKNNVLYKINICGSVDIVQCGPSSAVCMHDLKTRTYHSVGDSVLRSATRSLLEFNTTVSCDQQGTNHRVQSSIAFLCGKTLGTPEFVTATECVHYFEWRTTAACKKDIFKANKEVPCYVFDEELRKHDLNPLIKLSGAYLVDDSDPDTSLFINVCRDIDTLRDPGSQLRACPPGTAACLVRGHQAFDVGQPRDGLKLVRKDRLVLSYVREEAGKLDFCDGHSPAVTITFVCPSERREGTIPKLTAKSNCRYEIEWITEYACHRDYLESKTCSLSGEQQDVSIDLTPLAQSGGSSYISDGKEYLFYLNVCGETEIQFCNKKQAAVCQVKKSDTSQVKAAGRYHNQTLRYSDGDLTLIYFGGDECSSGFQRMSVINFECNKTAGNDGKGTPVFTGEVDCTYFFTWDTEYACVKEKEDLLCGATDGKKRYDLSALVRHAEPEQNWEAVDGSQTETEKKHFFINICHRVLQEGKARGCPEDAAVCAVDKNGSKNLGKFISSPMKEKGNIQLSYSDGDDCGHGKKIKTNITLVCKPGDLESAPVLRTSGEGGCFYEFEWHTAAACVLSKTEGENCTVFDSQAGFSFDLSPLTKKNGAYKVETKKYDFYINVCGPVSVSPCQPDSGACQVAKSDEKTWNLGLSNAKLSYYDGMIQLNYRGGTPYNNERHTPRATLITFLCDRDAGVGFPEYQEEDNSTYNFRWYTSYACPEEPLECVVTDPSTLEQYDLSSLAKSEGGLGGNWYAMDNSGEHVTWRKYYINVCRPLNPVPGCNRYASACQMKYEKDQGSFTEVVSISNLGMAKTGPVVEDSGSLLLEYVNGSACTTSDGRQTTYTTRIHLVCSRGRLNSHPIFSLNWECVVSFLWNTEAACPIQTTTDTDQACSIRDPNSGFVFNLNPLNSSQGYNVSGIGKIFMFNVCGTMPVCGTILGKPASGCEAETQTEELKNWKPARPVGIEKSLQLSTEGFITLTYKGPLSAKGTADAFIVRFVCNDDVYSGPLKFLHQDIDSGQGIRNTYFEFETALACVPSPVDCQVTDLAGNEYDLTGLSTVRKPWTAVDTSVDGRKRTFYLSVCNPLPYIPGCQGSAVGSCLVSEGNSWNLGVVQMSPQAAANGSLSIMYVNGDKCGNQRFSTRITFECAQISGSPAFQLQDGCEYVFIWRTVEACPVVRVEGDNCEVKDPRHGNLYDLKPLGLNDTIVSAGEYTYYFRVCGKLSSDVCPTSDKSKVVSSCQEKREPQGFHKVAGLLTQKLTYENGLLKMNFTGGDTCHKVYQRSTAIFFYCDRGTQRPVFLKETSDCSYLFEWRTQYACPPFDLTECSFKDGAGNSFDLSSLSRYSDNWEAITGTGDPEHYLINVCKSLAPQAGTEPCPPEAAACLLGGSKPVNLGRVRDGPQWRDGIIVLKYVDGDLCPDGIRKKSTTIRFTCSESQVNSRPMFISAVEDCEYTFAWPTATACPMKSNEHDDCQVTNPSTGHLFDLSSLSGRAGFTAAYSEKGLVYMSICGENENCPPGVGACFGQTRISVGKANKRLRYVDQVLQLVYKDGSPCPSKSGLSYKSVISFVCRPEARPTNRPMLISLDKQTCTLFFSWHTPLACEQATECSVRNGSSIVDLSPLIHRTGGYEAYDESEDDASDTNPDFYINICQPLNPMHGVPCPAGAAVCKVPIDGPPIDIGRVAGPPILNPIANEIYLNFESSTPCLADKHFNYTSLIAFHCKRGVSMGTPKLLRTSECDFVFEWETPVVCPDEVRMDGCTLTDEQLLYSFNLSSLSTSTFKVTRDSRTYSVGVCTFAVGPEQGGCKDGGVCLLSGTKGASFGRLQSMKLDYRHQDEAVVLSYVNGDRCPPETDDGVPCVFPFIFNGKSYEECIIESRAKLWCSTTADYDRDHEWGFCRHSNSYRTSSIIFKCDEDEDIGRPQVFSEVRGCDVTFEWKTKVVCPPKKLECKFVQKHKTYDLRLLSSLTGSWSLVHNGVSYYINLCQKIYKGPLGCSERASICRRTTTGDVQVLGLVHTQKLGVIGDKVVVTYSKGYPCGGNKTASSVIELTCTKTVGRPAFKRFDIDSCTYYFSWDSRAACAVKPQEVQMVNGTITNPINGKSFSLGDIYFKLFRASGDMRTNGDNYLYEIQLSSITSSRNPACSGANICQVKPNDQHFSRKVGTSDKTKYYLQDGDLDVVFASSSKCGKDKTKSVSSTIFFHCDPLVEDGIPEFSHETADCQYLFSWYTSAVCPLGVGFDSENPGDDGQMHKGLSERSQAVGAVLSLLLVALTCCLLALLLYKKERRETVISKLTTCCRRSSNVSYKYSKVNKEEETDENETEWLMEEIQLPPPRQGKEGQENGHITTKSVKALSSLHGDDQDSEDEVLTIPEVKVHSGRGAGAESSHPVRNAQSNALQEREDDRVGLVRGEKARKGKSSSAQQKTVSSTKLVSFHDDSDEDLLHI

B1: HexD3 (Modified α/α homodimer) (protein)
chain: ARAPSVSAKPGPALWPLPLSVKMTPNLLHLAPENFYISHSPNSTAGPSCTLLEEAFRRYHGYIFGFYKWHHEPAEFQAKTQVQQLLVSITLQSECDAFPNISSDESYTLLVKEPVAVLKANRVWGALRGLETFSQLVYQDSYGTFTINESTIIDSPRFPHRGLLLDTSRHYLPLKSILDTLDVMAYNKLNVFHWHLVDDQSFPYESFTFPELMRKGSYSLSHIYTAQDVKEVIEYARLRGIRVLAEFDTPGHTLSWGPGIPGLLTPCYSGSEPSGTFGPVNPSLNNTYEFMSTFFLEVSSVFPDFYLHLGGDEVDFTCWKSNPEIQDFMRKKGFGEDFKQLESFYIQTLLDIVSSYGKGYVVWQEVFDNKVKIQPDTIIQVWREDIPVNYMKELELVTKAGFRALLSAPWYLNRISYGQDWRKFYKVEPLAFEGTPEQKALVIGGEACMWGEYVDATNLVPRLWPRAGAVAERLWSNKLTRDMDDAYDRLSHFRCELVRRGVAAQPLYAGYCNQEFEQT
Regarding B1, in series [1], the Km (Kinetic data of FIG. 2, GM2AP-dependent GM2 degradation) stood at 13.7 µM; the Km GM2AP was 13.7 µM; the Km [GM2AP], µM (GM2AP-dependent GM2 hydrolysis, natural substrate assay) turned out to be 13.7 µM. For the same molecule, the K uptake (nM) MUG activity in series [2] came to 5.8 nM.

B2: Mod2B (Modified β/β homodimer) (protein)
chain: TQVQQLLVSITLQSECDAFPNISSDESYTLLVKEPVAVLKANRVWGALRGLETFSQLVYQDSYGTFTINESTIIDSPRFSHRGILIDTSRHYLPVKIILKTLDAMAFNKFNVLHWHIVDDQSFPYQSITFPELSNKGSYSLSHVYTPNDVRMVIEYARLRGIRVLPEFDTPGHTLSWGKGQKDLLTPCYSGSEPSGTFGPINPTLNTTYSFLTTFFKEISEVFPDQFIHLGGDEVEFKCWESNPKIQDFMRQKGFGTDFKKLESFYIQKVLDIIATINKGSIVWQEVFDDKAKLAPGTIVEVWKDSAYPEELSRVTASGFPVILSAPWYLNRISYGQDWRKYYKVEPLDFGGTQKQKQLFIGGEACLWGEYVDATNLTPRLWPRASAVGERLWSSKDVRDMDDAYDRLTRHRCRMVERGIAAQPLYAGYCNHENM
For B2, in series [1], the “GM2AP-dependent kinetics of GM2 hydrolysis” value is “GM2AP binding kinetics to the Hex homodimers was comparable to the wild type heterodimer”; the Km (Kinetic data of FIG. 2, GM2AP-dependent GM2 degradation) came to 20.4 µM; the Km [GM2AP], µM (GM2AP-dependent GM2 hydrolysis, natural substrate assay) was 20.4 µM.

B3: HexA (wild-type; α/β heterodimer) (protein)
chain 1: TLEKNVLVVSVVTPGCNQLPTLESVENYTLTINDDQCLLLSETVWGALRGLETFSQLVWKSAEGTFFINKTEIEDFPRFPHRGLLLDTSRHYLPLSSILDTLDVMAYNKLNVFHWHLVDDPSFPYESFTFPELMRKGSYNPVTHIYTAQDVKEVIEYARLRGIRVLAEFDTPGHTLSWGPGIPGLLTPCYSGSEPSGTFGPVNPSLNNTYEFMSTFFLEVSSVFPDFYLHLGGDEVDFTCWKSNPEIQDFMRKKGFGEDFKQLESFYIQTLLDIVSSYGKGYVVWQEVFDNKVKIQPDTIIQVWREDIPVNYMKELELVTKAGFRALLSAPWYLNRISYGPDWKDFYIVEPLAFEGTPEQKALVIGGEACMWGEYVDNTNLVPRLWPRAGAVAERLWSNKLTSDLTFAYERLSHFRCELLRRGVQAQPLNVGFCEQEFEQT
chain 2: ARAPSVSAKPGPALWPLPLSVKMTPNLLHLAPENFYISHSPNSTAGPSCTLLEEAFRYHGYIFGFYKWHHEPAEFQAKTQVQQLLVSITLQSECDAFPNISSDESYTLLVKEPVAVLKANRVWGALRGLETFSQLVYQDSYGTFTINESTIIDSPRFSHRGILIDTSRHYLPVKIILKTLDAMAFNKFNVLHWHIVDDQSFPYQSITFPELSNKGSYSLSHVYTPNDVRMVIEYARLRGIRVLPEFDTPGHTLSWGKGQKDLLTPCYSRQNKLDSFGPINPTLNTTYSFLTTFFKEISEVFPDQFIHLGGDEVEFKCWESNPKIQDFMRQKGFGTDFKKLESFYIQKVLDIIATINKGSIVWQEVFDDKAKLAPGTIVEVWKDSAYPEELSRVTASGFPVILSAPWYLDLISYGQDWRKYYKVEPLDFGGTQKQKQLFIGGEACLWGEYVDATNLTPRLWPRASAVGERLWSSKDVRDMDDAYDRLTRHRCRMVERGIAAQPLYAGYCNHENM
In the case of B3, in series [1], the Km (Kinetic data of FIG. 2, GM2AP-dependent GM2 degradation) came out at 14.5 µM; the Km GM2AP amounted to 14.5 µM; the Km [GM2AP], µM (GM2AP-dependent GM2 hydrolysis, natural substrate assay) worked out at 14.5 µM. In series [2], this molecule yielded a K uptake (nM) MUG activity of 3.3 nM.

B4: HexM (Modified α/α homodimer) (protein)
chain: TLEKNVLVVSVVTPGCNQLPTLESVENYTLTINDDQCLLLSETVWGALRGLETFSQLVWKSAEGTFFINKTEIEDFPRFPHRGLLLDTSRHYLPLKSILDTLDVMAYNKLNVFHWHLVDDQSFPYESFTFPELMRKGSYSLSHIYTAQDVKEVIEYARLRGIRVLAEFDTPGHTLSWGPGIPGLLTPCYSGSEPSGTFGPVNPSLNNTYEFMSTFFLEVSSVFPDFYLHLGGDEVDFTCWKSNPEIQDFMRKKGFGEDFKQLESFYIQTLLDIVSSYGKGYVVWQEVFDNKVKIQPDTIIQVWREDIPVNYMKELELVTKAGFRALLSAPWYLNRISYGQDWRKFYKVEPLAFEGTPEQKALVIGGEACMWGEYVDATNLVPRLWPRAGAVAERLWSNKLTRDMDDAYDRLSHFRCELVRRGVAAQPLYAGYCNQEFEQT
With B4, in series [1], the “GM2AP-dependent kinetics of GM2 hydrolysis” value is listed as “GM2AP binding kinetics to the Hex homodimers was comparable to the wild type heterodimer”; the Km (Kinetic data of FIG. 2, GM2AP-dependent GM2 degradation) worked out at 19.6 µM; the Km GM2AP was 19.6 µM; the Km [GM2AP], µM (GM2AP-dependent GM2 hydrolysis, natural substrate assay) was 19.6 µM. In series [2], this molecule showed a K uptake (nM) MUG activity of 130 nM.

The values above are taken from US20240318156A1.
